Results reported in the supplement of paper PMC10126150.
± gives the standard deviation of the averaged measurements.

Tested on: ATP
Test: switch fluorescence ratio, 500 uM ATP over buffer (Cy3 cluster intensity, sum of 5 cycles each) (fold (ratio)); higher = stronger signal-on switching upon ATP binding; sequences stand for … in TCGTCGGCAGCGTCAGATGTGTATAAGAGACAGTTTTTTTTTTTTTTTTTTTTTTTTT…TC
Conditions: aptamer strand: ATP DNA aptamer (quencher-CACCTGGGGGAGTATTGCGGAGGAAGG + anchor), 100 nM annealed; ATP concentration: 500 uM
Summary of the method: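 Values give the fluorescence ratio for each switch-domain sequence, averaged from per-cluster ratios of summed target-cycle to summed buffer-cycle Cy3 intensity. The Cy3-labelled switching-strand clusters sat on a modified Illumina MiSeq flow-cell, were annealed to 100 nM quencher-labelled ATP aptamer, and were imaged in selection buffer, then after 15 min with 500 uM ATP at 22 °C. Five cycles ran with NaOH stripping and re-annealing between them, and clusters outside 100-1000 RFU were excluded.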
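Also: ATP exposure 15 min at 22 °C before imaging.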

Sequence | switch fluorescence ratio
TAGAAGCCCC | 1.09 ± 0.039
TGCAATATTT | 1.31 ± 0.02
CGCAAAGATT | 1.06 ± 0.024
ACTTTATTGG | 1.03 ± 0.024
TCATTCTTTA | 1.01 ± 0.019
ACGTTGATGG | 0.9882 ± 0.0095
TCGATATTGG | 1.02 ± 0.022
TAATACTGAA | 1.01 ± 0.029
TTTGGAATAT | 1.04 ± 0.013
CAGAGGGTGT | 1.12 ± 0.032
ATGAAAAGGG | 1 ± 0.022
TCGCTGTTGT | 1.01 ± 0.0019
GGGGGTCATG | 1.02 ± 0.073
TGGGAGGTTA | 0.965 ± 0.025
TGGGACGTTG | 0.995 ± 0.014
CCACTGGGGG | 1.04 ± 0.028
TAGCTCGGGA | 0.9742 ± 0.0097
GACGTATAG | 0.994 ± 0.022
GCACGGTACG | 1 ± 0.031
GGTCTAGAGA | 0.98 ± 0.033
GTTATCGCTA | 1.07 ± 0.04
TGGTAATCAA | 1.01 ± 0.039
TATGGCCGCC | 1.01 ± 0.043
TTCGTACGGG | 1.03 ± 0.021
CATTGGGACA | 1.02 ± 0.019

Sequence | switch fluorescence ratio
ATTTGTTATT | 1.01 ± 0.024
TTGTTTCAGG | 1.01 ± 0.018
TGACCGCCGT | 1.06 ± 0.035
GCGATCCAAA | 1 ± 0.037
CGGGTCTTGC | 0.981 ± 0.035
CTCCATCGGG | 1.31 ± 0.033
GCTTTAGCAG | 1.03 ± 0.02
AGTAGTTGGG | 0.967 ± 0.037
TTGCAGGGGT | 1.14 ± 0.25
TGAGCGTG | 0.9816 ± 0.0078
CACTGGACGG | 1.28 ± 0.049
TTTTTCAAGT | 1.1 ± 0.29
CGTATTCGTA | 0.978 ± 0.019
TGATATAAGC | 1.03 ± 0.015
AGTGGGGACG | 1.031 ± 0.01
GCTACTGGCA | 1.003 ± 0.0077
TTGGGGGGTG | 1.04 ± 0.14
AATCCGAGGA | 1.05 ± 0.054
GCGAGTATGC | 1.03 ± 0.02
AAGAGTGCGG | 0.9742 ± 0.0074
CTAAGAAGCG | 1.1 ± 0.17
CAGGTCCTTT | 1.01 ± 0.025
CAAATCAGGA | 1 ± 0.038
TAATCGAAGC | 1 ± 0.048
AGCTGAAGTG | 0.972 ± 0.018

Sequence | switch fluorescence ratio
AACATGAGGA | 1 ± 0.02
ATATACGAGT | 1.002 ± 0.005
ACTATTTTTG | 0.9745 ± 0.0067
TGATGGATGA | 1.01 ± 0.02
CGGAACTGAA | 1.02 ± 0.072
GATCCAGAAG | 1.017 ± 0.0036
TCGTATTGAG | 0.9482 ± 0.0077
TGGGCCCATT | 1.02 ± 0.076
AAAAAAAGGA | 1.01 ± 0.021
GGCTTGGTGT | 1 ± 0.013
TCGATTCGGT | 1.02 ± 0.026
CTATCTGTAG | 0.994 ± 0.03
GTGGGGATCC | 1.025 ± 0.0046
TGGGGAGGCA | 0.97516 ± 0.00042
ATTTATTTGC | 1.01 ± 0.022
AGCTTCGGAC | 1.35 ± 0.12
ATAAAACATG | 0.9785 ± 0.0055
CCAACATGAT | 1.017 ± 0.007
GTGGGGACGG | 0.977 ± 0.053
AGGCTTTGG | 0.999 ± 0.051
AAGGAAACGT | 1.04 ± 0.039
CAGGAAAATT | 1 ± 0.032
GCGGGCGGCG | 0.974 ± 0.03
GACGGGCACA | 1.13 ± 0.028
TGGGATTTGG | 0.98432 ± 0.00062

Sequence | switch fluorescence ratio
TGGTTTGGAA | 0.998 ± 0.05
AATTGGATGT | 1.01 ± 0.021
CGATTTTTGT | 0.982 ± 0.02
TCAGTATAGC | 1.018 ± 0.004
TTTTAGTACT | 0.99 ± 0.036
TTCAATGTTT | 0.978 ± 0.049
GTTCCGGGTT | 0.983 ± 0.075
CACTTGGGCG | 1.033 ± 0.0077
TTTTTAATGT | 0.998 ± 0.062
GATCTATTTT | 1.01 ± 0.018
AGGCGATCTG | 1.01 ± 0.041
GACATTCACT | 1.108 ± 0.0088
TAATTTCTGG | 0.9896 ± 0.0085
GTAAAAGCGG | 0.9788 ± 0.0082
CCAAGGGTGC | 1.63 ± 0.11
CCTCGTGTTG | 1.02 ± 0.022
TAAGAATTTG | 1.22 ± 0.34
GGGAAAATTA | 0.997 ± 0.019
TGGGAACGAT | 1.011 ± 0.0034
GGGCAGTGGG | 1.05 ± 0.074
GCAGAGGGTC | 0.9998 ± 0.0066
CGAGGTGGGT | 1.01 ± 0.049
TCAACAGGGA | 1.08 ± 0.15
AAACGGGTTC | 1.01 ± 0.036
TCTTTTTTAG | 0.998 ± 0.036
